What was measured:
[1] = molecular target: T1, human Fc gamma receptor IIa (FcγRIIa/CD32a) (Homo sapiens, UniProt P12318); assay: Human FcγR binding ELISA, FcγRIIa (Example 8); details: antibody coated on plate, soluble receptor titrated, read-out: FcγRIIa (CD32a) binding affinity
T1 sequence (P12318 36-218): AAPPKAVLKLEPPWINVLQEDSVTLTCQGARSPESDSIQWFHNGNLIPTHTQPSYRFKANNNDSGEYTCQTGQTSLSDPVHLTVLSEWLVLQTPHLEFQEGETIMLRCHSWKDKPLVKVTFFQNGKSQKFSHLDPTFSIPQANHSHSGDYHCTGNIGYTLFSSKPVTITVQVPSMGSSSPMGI
Protocol: (§1) The interaction of the unmodified and of conjugated antibodies with human Fc gamma receptors I (FcγRI/CD64), with human Fc gamma receptors IIa (FcγRIIa/CD32a), with inhibitory human Fc gamma receptors IIb (FcγRIIb/CD32b), and with human Fc gamma receptors III FcγRIIIa/CD16 were measured by ELISA.
(§2) Briefly, Corning high-binding half-area plates (Fisher Scientific, Reinach, Switzerland) were coated overnight at 4° C. with 25 μl of unmodified and of conjugated anti-PD1 antibodies at 2.5 μg/ml in PBS. Plates were then washed four times with 100 μl of PBS-0.02% Tween20. Plates surfaces were blocked with 25 μl of PBS-0.02% Tween20-1% BSA at 37° C. during 1 h. Plates were then washed four times with 100 μl of PBS-0.02% Tween20. Then twenty-five microliters of either recombinant Human Fc gamma RI/CD64 Protein (R&D systems, 1257-FC-050, CF), recombinant Human Fc gamma RIIA/CD32a (H167) Protein (R&D systems, 9595-CD-050, CF), recombinant Human Fc gamma RIIB/CD32b Avi-tag Protein (R&D systems, AVI1875-050, CF), or recombinant Human Fc gamma RIIIA/CD16a Protein (R&D systems, 4325-FC-050; CF) were added in five-fold serial dilutions ranging from 1000 nM to 0.001 nM into PBS-0.02% Tween20-0.1% BSA and incubated at 37° C. during 2 h. Plates were then washed four times with 100 μl of PBS-0.02% Tween20. Twenty-five microliters of a 1/500 HRP-anti-His antibody in PBS—0.02% Tween20-0.1% BSA (R&D systems, anti-HIS—HRP Ab, #MAB050H) were added to each well and plates were incubated at Room Temperature during 1 h. Plates were then washed four times with 100 μl of PBS-0.02% Tween20. Fifty microliters of TMB substrate reagent (#CL07, Merck, Buchs, Switzerland) were added to each well and incubated at 37° C. during 5 min. After 5 min at 37° C., Horseradish peroxidase reaction was stopped by adding 50 μl/well of 0.5M H2SO4 stop solution. ELISA signal was then measured at 450 nm on an EnSpire plate reader from Perkin Elmer (Schwerzenbach, Switzerland).

[2] = molecular target: human Fc gamma receptor I (FcγRI/CD64) (Homo sapiens, UniProt P12314); assay: Human FcγR binding ELISA, FcγRI (Example 8); details: antibody coated on plate, soluble receptor titrated, read-out: FcγRI/(CD64) binding affinity
Protocol: as §1, §2

human PD-L1/B7-H1 = human PD-L1/B7-H1 (Homo sapiens, UniProt Q9NZQ7); assay: PD-L1 binding ELISA (Example 5); details: coated antibody or immunocytokine, biotinylated human PD-L1/B7-H1
Protocol: The interaction of the unmodified antibodies and corresponding IL-18 immunocytokines with relevant immune cell associated antigen are measured by ELISA assay. For these studies, Corning high-binding half-area plates (Fisher Scientific, Reinach, Switzerland) are coated overnight at 4° C. with 25 μl of unmodified antibodies corresponding IL-18 immunocytokines at 5 μg/ml in PBS. Plates are then washed four times with 100 μl of PBS-0.02% Tween20. Plate surfaces are blocked with 25 μl of PBS-0.02% Tween20-1% BSA at 37° C. during 1 h. Plates are then washed four times with 100 μl of PBS-0.02% Tween20. […] Plates are then washed four times with 100 μl of PBS-0.02% Tween20. Twenty-five microliters of Streptavidin-Horseradish peroxidase (#RABHRP3, Merck, Buchs, Switzerland) diluted at 1:500 into PBS-0.02% Tween20-0.1% BSA are added to each well and incubated at Room Temperature during 30 min. Plates are then washed four times with 100 μl of PBS-0.02% Tween20. Fifty microliters of TMB substrate reagent (#CL07, Merck, Buchs, Switzerland) are added to each well and incubated at 37° C. during 5 min. After 5 min at 37° C., Horseradish peroxidase reaction is stopped by adding 50 μl/well of 0.5M H2SO4 stop solution. ELISA signal is then measured at 450 nm on an ENSPTRE® plate reader from Perkin Elmer (Schwerzenbach, Switzerland).

[3] = molecular target: human Fc gamma receptor III FcγRIIIa/CD16; assay: Human FcγR binding ELISA, FcγRIIIa (Example 8); details: antibody coated on plate, soluble receptor titrated, read-out: FcγRIIIa (CD16) binding affinity
Protocol: as §1, §2

[4] = molecular target: T2, human Fc gamma receptor IIb (FcγRIIb/CD32b) (Homo sapiens, UniProt P31994); assay: Human FcγR binding ELISA, FcγRIIb (Example 8); details: antibody coated on plate, soluble receptor titrated, read-out: FcγRIIb (CD32b) binding affinity
T2 sequence (P31994 43-310): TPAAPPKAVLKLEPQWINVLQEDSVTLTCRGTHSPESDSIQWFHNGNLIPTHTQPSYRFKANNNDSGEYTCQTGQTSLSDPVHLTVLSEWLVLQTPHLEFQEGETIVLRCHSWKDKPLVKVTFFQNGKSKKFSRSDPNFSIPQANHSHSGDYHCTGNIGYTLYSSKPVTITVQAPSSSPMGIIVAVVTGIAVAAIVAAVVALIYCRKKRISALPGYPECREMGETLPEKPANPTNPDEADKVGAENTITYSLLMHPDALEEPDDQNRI
Protocol: as §1, §2

Chain of human Fc gamma receptor III FcγRIIIa/CD16 (P08637 17-254): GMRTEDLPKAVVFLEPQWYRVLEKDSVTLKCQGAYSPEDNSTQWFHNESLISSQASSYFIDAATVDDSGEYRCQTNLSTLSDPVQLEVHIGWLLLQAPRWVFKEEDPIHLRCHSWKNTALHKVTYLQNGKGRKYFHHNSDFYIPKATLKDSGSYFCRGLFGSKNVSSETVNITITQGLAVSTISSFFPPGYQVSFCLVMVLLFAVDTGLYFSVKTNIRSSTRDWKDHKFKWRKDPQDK
Chain of human Fc gamma receptor I (FcγRI/CD64) (P12314 16-374): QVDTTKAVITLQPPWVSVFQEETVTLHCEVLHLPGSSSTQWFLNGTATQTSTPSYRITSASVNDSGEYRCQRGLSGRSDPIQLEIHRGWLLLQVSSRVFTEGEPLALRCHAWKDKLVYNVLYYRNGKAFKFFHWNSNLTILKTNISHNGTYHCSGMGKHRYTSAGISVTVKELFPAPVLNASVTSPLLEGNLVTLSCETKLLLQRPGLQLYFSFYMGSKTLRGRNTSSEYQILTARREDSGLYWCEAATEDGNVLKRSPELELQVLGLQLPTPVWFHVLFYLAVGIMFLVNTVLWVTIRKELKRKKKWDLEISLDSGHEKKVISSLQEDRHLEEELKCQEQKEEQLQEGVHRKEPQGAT
Chain of human PD-L1/B7-H1 (Q9NZQ7 19-290): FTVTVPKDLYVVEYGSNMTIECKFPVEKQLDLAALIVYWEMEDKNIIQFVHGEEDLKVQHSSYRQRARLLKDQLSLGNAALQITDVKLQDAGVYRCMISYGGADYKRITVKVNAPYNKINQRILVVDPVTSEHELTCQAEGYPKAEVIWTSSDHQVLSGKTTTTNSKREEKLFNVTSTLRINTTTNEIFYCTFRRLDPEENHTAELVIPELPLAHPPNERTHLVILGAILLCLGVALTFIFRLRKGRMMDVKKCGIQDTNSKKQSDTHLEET

Row | Kd [1] [µM] | Kd [2] [µM] | Kd (human PD-L1/B7-H1) [µM] | Kd [3] [µM] | Kd [4] [µM] | Substance
1 | 1.37 | 0.00917 | 0.000443 | 0.356 | > 10 | Atezolizumab/Tecentriq: anti-PD-L1 antibody, unconjugated reference antibody [reference compound]
2 | 1.74 | 0.0109 |  | 0.492 | > 10 | Composition B: immunocytokine: Atezolizumab/Tecentriq (anti-PD-L1) conjugated to IL-18 polypeptide SEQ ID NO: 30
3 | 1.35 | 0.000315 | > 0.1 | 1.71 | 2.63 | LZM-009: anti-PD-1 antibody (VH SEQ ID NO: 376, VL SEQ ID NO: 377), unconjugated reference antibody [reference compound]

Source: patent US12383631B2, “Immune antigen specific IL-18 immunocytokines and uses thereof” (Bright Peak Therapeutics AG, priority 2022, dated 2025)
